Assay: Immunization of mice, valence of mouse sera by indirect ELISA
Type: in vivo
Details: from valence of mouse sera
Experimental: Allosteric peptide of Colicin Ia, i.e. Ia′, PMC-SA1 obtained in embodiment 1, wild-type colicin Ia and the anti-Staphylococcus aureus peptide (ZL01128836.1) which invented by the present inventor were taken respectively to immunize mice. After admixturing with the adjuvant, the above proteins were interaperitonea injected respectively to the mice by 50 μg per mouse for one time of foundational quantity and 50 μg per mouse for one time of additional quantity totally 5 times by two weeks interval. Indirect ELISA detection method was applied to detect the valence of mouse sera (Xiao Yi, et. al., Preparation and preliminary characterization of monoclonal antibodies against Pheromonicin-and-Staphylococcus aureus, Shanxi Medical Journal, 35(1): 6-7, 32 (2006)). The valence of mouse sera which immunized by wild type colicin Ia as well as anti-Staphylococcus aureus polypeptide (ZL01128836.1) was 10^−4 to 10^−5, while the valence of mouse sera which immunized by allosteric peptide of colicin Ia and PMC-SA1 was 10^−2 to 10^−3.

B1: allosteric peptide of colicin Ia: wild-type Colicin Ia with mutations G11A, H22R, A26G, V31L and H40K; SEQ ID NO: 36 (protein)
chain: SDPVRITNPAAESLGYDSDGREIMGVDIYLNPPRVDVFKGTPPAWSSFGNKTIWGGNEWVDDSPTRSDIEKRDKEITAYKNTLSAQQKENENKRTEAGKRLSAAIAAREKDENTLKTLRAGNADAADITRQEFRLLQAELREYGFRTEIAGYDALRLHTESRMLFADADSLRISPREARSLIEQAEKRQKDAQNADKKAADMLAEYERRKGILDTRLSELEKNGGAALAVLDAQQARLLGQQTRNDRAISEARNKLSSVTESLNTARNALTRAEQQLTQQKNTPDGKTIVSPEKFPGRSSTNHSIVVSGDPRFAGTIKITTSAVIDNRANLNYLLSHSGLDYKRNILNDRNPVVTEDVEGDKKIYNAEVAEWDKLRQRLLDARNKITSAESAVNSARNNLSARTNEQKHANDALNALLKEKENIRNQLSGINQKIAEEKRKQDELKATKDAINFTTEFLKSVSEKYGAKAEQLAREMAGQAKGKKIRNVEEALKTYEKYRADINKKINAKDRAAIAAALESVKLSDISSNLNRFSRGLGYAGKFTSLADWITEFGKAVRTENWRPLFVKTETIIAGNAATALVALVFSILTGSALGIIGYGLLMAVTGALIDESLVEKANKFWGI
modifications: allosteric peptide of colicin Ia
possibility of causing host allergic reaction relative to anti-Staphylococcus aureus polypeptide: lower one to two order of magnitude
